Values belong to the binder of their own block, whether it stands above or below them.
Columns and labels:
[1] = biological target: angiotensin I converting enzyme (ACE); experiment: cell-based or functional assay
[2] = biological target: angiotensin I converting enzyme (ACE); experiment: cell-based or functional assay; remark: listed apart in the source

- ACE inhibition (IC50 value), at-line ACE assay (cleavage of HHL) [1]: 50 µM
- ACE inhibition (IC50 value), modified Matsui assay (cleavage of Hip-His-Leu) [1]: 10 µM
B1: tripeptide Isoleucine-Threonine-Proline (Ile-Thr-Pro) (peptide)
peptide: ITP

- ACE inhibition (IC50 value), at-line ACE assay (cleavage of HHL) [1]: 3.8 µM
- ACE inhibition (IC50 value), modified Matsui assay (cleavage of Hip-His-Leu) [1]: 0.4 µM
- IC50 value in the Modified Matsui test (ACE inhibition) [2]: 0.5 µM
B2: tripeptide Methionine-Alanine-Proline (Met-Ala-Pro) (peptide)
peptide: MAP

- ACE inhibition (IC50 value), at-line ACE assay (cleavage of HHL) [1]: 7.1 µM
- ACE inhibition (IC50 value), modified Matsui assay (cleavage of Hip-His-Leu) [1]: 2 µM
B3: tripeptide IPP (peptide)
peptide: IPP
